B1: 369_H09 (antibody, V domains shown)
VH: EVQLLESGGGLVQPGGSLRLSCAASGFTFDDYSMNWVRQAPGKGLEWVSGINYNGGYTSYADSVKGRFTISRDNSKNTLYLQMNSLRAEDTAVYYCARSANWHDTALDYWGQGTLVTVSS
VL: DIQMTQSPSSLSASVGDRVTITCRASQSILSYVNWYQQKPGKAPKLLIYAVTSLASGVPSRFSGSGSGTDFTLTISSLQPEDFATYYCQQSYESPLTFGGGTKVEIK
B2: 370_A12 (antibody, V domains shown)
VH: B1 VH with D30S, D31S, S33G, S49A
VL: B1 VL with S31T, V33L, V51A, E93D
B3: 370_G02 (antibody, V domains shown)
VH: B1 VH with D30S, S49A, G50N, T58K, S59G
VL: B1 VL with L30V, V33L, V51A, L54R, A55H, E93D
B4: 370_C03 (antibody, V domains shown)
VH: B1 VH with D30S, D31S, S33G, S49A, T58K, S59G
VL: B1 VL with S31T, V33L, A50Y, S53N, L54R, A55Q, E93S
B5: 370_A04 (antibody, V domains shown)
VH: B1 VH with D31S
VL: B1 VL with L30I, S31T, V33L, V51A, L54R, E93D, S94N
B6: 370_G03 (antibody, V domains shown)
VH: B1 VH with D30S, D31S, S49A, G50N, S59G
VL: B1 VL with S31T, L47V, V51T, L54R, E93N, S94N
B7: 370_C08 (antibody, V domains shown)
VH: B1 VH with D30S, D31S, S33G, S49A, T58K, S59G
VL: B1 VL with L30S, S31N, V33L, L54R, E93D
B8: 370_G06 (antibody, V domains shown)
VH: B1 VH with D30S, S33G, N35H, G50S
VL: B1 VL with L47V, V51A, L54R, Y92D, E93N, S94T
B9: 370_E03 (antibody, V domains shown)
VH: B1 VH with D30S, D31S, S33G, G50S, T58K, S59G
VL: B1 VL with S31T, V33L, L47V, A50Y, V51A, T52S, S53N, L54R, E93D
B10: 370_F07 (antibody, V domains shown)
VH: B1 VH with D31S, G50N, T58K, S59G
VL: B1 VL with V33L, V51A, L54R, E93N, S94L
B11: 370_G10 (antibody, V domains shown)
VH: B1 VH with D30S, S33G, G55S
VL: B1 VL with L30S, V33L, A50V, T52N, S53N, L54R, S94N
B12: 370_F05 (antibody, V domains shown)
VH: B1 VH with D30S, D31S, S33G, G55S
VL: B1 VL with L30V, L47V, V51A, L54R, S94T
B13: 370_E09 (antibody, V domains shown)
VH: B1 VH with Y32S, N35H, G50N, S59G, R98K
VL: B1 VL with L47V, V51A, L54R, S94L
B14: 370_F10 (antibody, V domains shown)
VH: B1 VH with D30S, D31S, S49A
VL: B1 VL with L30V, V33L, L47V, V51A, L54R, E93N
B15: 370_A01 (antibody, V domains shown)
VH: B1 VH with D30S, D31S, G55S, T58K
VL: B1 VL with L30S, S31T, V33L, L47V, V51A, L54R, E93N, S94L
B16: 370_G11 (antibody, V domains shown)
VH: B1 VH with D30S, D31S, S49A, G50S, G55S, A106H
VL: B1 VL with L30V, V33L, L47V, V51A, L54R, E93S, S94L
B17: 370_D04 (antibody, V domains shown)
VH: B1 VH with D31S, S49A, G50N, G55S, T58K, S59G
VL: B1 VL with S31T, V33L, L47V, V51A, L54R, E93D, S94N
B18: 370_C01 (antibody, V domains shown)
VH: B1 VH with D31S, G55S, S59G
VL: B1 VL with S31T, V33L, L47V, V51A, E93D, S94T
B19: 370_C05 (antibody, V domains shown)
VH: B1 VH with D30S, D31S, S49A, G55S, S59G
VL: B1 VL with L47V, V51A, L54R, E93N
B20: 370_C09 (antibody, V domains shown)
VH: B1 VH with D31S, S33G
VL: B1 VL with L30I, V33L, L47V, V51A, E93S, S94T
B21: 370_E06 (antibody, V domains shown)
VH: B1 VH with D30S, D31S, S33G, G55S, T58K
VL: B1 VL with V33L, L47V, V51T, E93D, S94T
B22: 370_D11 (antibody, V domains shown)
VH: B1 VH with D31S, S59G
VL: B1 VL with L30V, V33L, V51A, L54R, E93D, S94T
B23: 370_G09 (antibody, V domains shown)
VH: B1 VH with D30S, D31S, S33G, S49A, T58K
VL: B1 VL with L47V, V51A, L54R

Substitutions are numbered along the chain they refer to.
Further: test concentration or dose not given here.

Sequence of Mouse ACVR2A (P27038 20-135 limits assumed): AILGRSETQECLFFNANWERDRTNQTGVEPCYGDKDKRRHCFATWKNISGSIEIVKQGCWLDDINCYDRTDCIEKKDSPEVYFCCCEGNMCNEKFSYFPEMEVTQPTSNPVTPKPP

The first experiment addresses T1, Goat anti-Human Kappa.
T1 construct: Positive control of the ELISA; also called biotinylated goat anti-human kappa light chain
In words: ELISA, positive control. In outline:
(§1)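 mAb binding by ELISA; antigens: hu ACVR2A, mu ACVR2A; pos ctrl biotinylated goat anti-hu kappa LC; neg ctrl hu Fc.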
Regarding B1, the optical density turned out to be 3.51 OD.

In turn, B2 yielded an optical density of 3.72 OD.

B3 came in with an optical density of 3.62 OD.

As for B4, the optical density was 3.57 OD.

For the molecule B5, the optical density worked out at 3.48 OD.

B6: the optical density is 3.58 OD.

As to B7, the optical density turned out to be 3.11 OD.

B8: the optical density came out at 3.41 OD.

With B9, the optical density was found to be 3.57 OD.

The molecule B10 returned an optical density of 3.52 OD.

B11 had an optical density of 3.49 OD.

Regarding B12, the optical density turned out to be 3.54 OD.

As to B13, the optical density was 3.6 OD.

Take B14: the optical density came out at 3.64 OD.

The molecule B15 gave an optical density of 3.62 OD.

As to B16, the optical density turned out to be 3.72 OD.

Regarding B17, the optical density worked out at 3.6 OD.

B18 registered an optical density of 3.62 OD.

As for B19, the optical density was found to be 3.56 OD.

For the molecule B20, the optical density amounted to 3.48 OD.

In the case of B21, the optical density is 3.61 OD.

For B22, the optical density was 3.38 OD.

Take B23: the optical density came to 3.64 OD.

Another experiment concerns the target Mouse ACVR2A (mouse, UniProt P27038 20-135, limits assumed). In words: ELISA. In outline: as §1
Take B1: the optical density stood at 2.64 OD.

In turn, B2 displayed an optical density of 3.19 OD.

In turn, B3 had an optical density of 3.22 OD.

B4 came in with an optical density of 3.77 OD.

Turning to B5, the optical density came to 2.74 OD.

Regarding B6, the optical density is 3.44 OD.

On to B7, for which the optical density was 2.97 OD.

B8 had an optical density of 2.33 OD.

B9 yielded an optical density of 3.74 OD.

For the molecule B10, the optical density came out at 3.53 OD.

In turn, B11 showed an optical density of 2.74 OD.

In turn, B12 registered an optical density of 2.91 OD.

On to B13, for which the optical density was 3.56 OD.

Molecule B14 returned an optical density of 3.22 OD.

With B15, the optical density turned out to be 2.96 OD.

For B16, the optical density was 3.07 OD.

With B17, the optical density was 3.74 OD.

Consider B18, for which the optical density was determined as 3.38 OD.

In the case of B19, the optical density was 3.55 OD.

In turn, B20 showed an optical density of 2.25 OD.

B21 displayed an optical density of 3.02 OD.

In turn, B22 yielded an optical density of 2.79 OD.

B23 returned an optical density of 3.14 OD.

For a further experiment, the target named is T2, Human ACVR2A (human, UniProt P27037 20-135, limits assumed).
T2 construct: also called activin receptor, type II A
T2 sequence (P27037 20-135 limits assumed): as the sequence (P27038 20-135 limits assumed) above, with R20K, I73V counted along it
In words: ELISA. In outline:
as §1
Take B1: the optical density was 2.36 OD.

As to B2, the optical density turned out to be 3.06 OD.

B3 returned an optical density of 2.98 OD.

In turn, B4 gave an optical density of 3.59 OD.

The molecule B5 displayed an optical density of 2.57 OD.

For B6, the optical density was 3.1 OD.

Take B7: the optical density turned out to be 2.73 OD.

In the case of B8, the optical density turned out to be 2.19 OD.

B9: the optical density came to 3.64 OD.

B10 displayed an optical density of 3.45 OD.

B11 gave an optical density of 2.98 OD.

Turning to B12, the optical density came to 2.76 OD.

B13 yielded an optical density of 3.45 OD.

On to B14, for which the optical density worked out at 3.15 OD.

Turning to B15, the optical density was 2.86 OD.

On to B16, for which the optical density was 2.98 OD.

For B17, the optical density was determined as 3.59 OD.

B18 had an optical density of 3.29 OD.

As for B19, the optical density turned out to be 3.21 OD.

B20: the optical density is 1.97 OD.

B21: the optical density turned out to be 2.9 OD.

Consider B22, for which the optical density was 2.72 OD.

On to B23, for which the optical density stood at 3.01 OD.

Source of the values: US20210380703A1 (RIGEL PHARMACEUTICALS, published 2021).
